We go through 1 substance from patent US20210318312.

recombinant SIRT5 (Sigma, cat. #SRP0119-100UG), sequence (chain, as listed by the source): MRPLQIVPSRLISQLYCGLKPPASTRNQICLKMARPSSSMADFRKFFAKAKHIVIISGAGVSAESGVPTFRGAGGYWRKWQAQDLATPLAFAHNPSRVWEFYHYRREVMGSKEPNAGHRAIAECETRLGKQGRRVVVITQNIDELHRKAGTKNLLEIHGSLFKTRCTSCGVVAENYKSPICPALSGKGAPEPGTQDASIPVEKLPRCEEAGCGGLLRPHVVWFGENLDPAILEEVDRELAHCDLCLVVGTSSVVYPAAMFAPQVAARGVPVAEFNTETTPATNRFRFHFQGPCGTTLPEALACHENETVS

With “recombinant SIRT5 (Sigma, cat. #SRP0119-100UG)”, the “in vitro deacylation kinetics” value in the series with DLAT K259 Lipoyl peptide is on record as “no activity was detected for DLAT lipoyl (SEQ ID NO: 8) reactions”; in the series on DLAT K259 Acetyl peptide, “low, but detectable activity was measured for DLAT acetyl”.
